According to paper PMC9758056 (2022):

Target: Taxol-stabilized microtubules from bovine tubulin, labeled with Alexa Fluor 488 and biotin, tethered to a … (bovine, UniProt Q6B856 1-445, part of the tubulin biotinylated, part labeled with Alexa Fluor 488 (10% biotin-tubulin and 10% Alexa 488-tubulin) | part of the tubulin biotinylated, part labeled with Alexa Fluor 488 (10% …))
Sequence (chain, as listed by the source, chain 1 of 2): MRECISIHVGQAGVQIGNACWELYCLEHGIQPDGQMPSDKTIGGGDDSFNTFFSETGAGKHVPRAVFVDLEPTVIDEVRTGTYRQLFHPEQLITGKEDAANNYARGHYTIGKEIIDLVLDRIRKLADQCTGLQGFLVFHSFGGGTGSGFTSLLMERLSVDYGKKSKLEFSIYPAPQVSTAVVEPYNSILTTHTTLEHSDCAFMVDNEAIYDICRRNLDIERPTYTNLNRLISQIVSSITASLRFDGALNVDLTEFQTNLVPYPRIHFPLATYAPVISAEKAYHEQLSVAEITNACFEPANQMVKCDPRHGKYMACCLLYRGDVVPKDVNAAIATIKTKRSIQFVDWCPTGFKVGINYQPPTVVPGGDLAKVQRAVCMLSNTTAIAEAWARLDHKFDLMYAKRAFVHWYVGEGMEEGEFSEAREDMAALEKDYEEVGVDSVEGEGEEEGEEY
Sequence (Q6B856 whole entry, chain 2 of 2): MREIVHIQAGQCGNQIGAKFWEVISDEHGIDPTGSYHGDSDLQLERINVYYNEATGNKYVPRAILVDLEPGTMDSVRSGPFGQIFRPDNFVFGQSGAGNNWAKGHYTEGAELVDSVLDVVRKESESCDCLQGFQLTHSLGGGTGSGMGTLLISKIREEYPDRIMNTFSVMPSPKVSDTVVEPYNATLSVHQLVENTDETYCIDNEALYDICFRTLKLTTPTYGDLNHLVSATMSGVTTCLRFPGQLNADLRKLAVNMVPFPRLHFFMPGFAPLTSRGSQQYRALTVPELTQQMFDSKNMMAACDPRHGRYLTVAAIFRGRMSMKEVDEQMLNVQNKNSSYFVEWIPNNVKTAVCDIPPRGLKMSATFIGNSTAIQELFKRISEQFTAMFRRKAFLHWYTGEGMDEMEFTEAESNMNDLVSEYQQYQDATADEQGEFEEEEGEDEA

Kd: ~40 nM
B1: TMR-LRRK2^RCKW (LRRK2^RCKW randomly labeled with BODIPY TMR-X) (domain or fragment)
chain: KKAVPYNRMKLMIVGNTGSGKTTLLQQLMKTKKSDLGMQSATVGIDVKDWPIQIRDKRKRDLVLNVWDFAGREEFYSTHPHFMTQRALYLAVYDLSKGQAEVDAMKPWLFNIKARASSSPVILVGTHLDVSDEKQRKACMSKITKELLNKRGFPAIRDYHFVNATEESDALAKLRKTIINESLNFKIRDQLVVGQLIPDCYVELEKIILSERKNVPIEFPVIDRKRLLQLVRENQLQLDENELPHAVHFLNESGVLLHFQDPALQLSDLYFVEPKWLCKIMAQILTVKVEGCPKHPKGIISRRDVEKFLSKKRKFPKNYMSQYFKLLEKFQIALPIGEEYLLVPSSLSDHRPVIELPHCENSEIIIRLYEMPYFPMGFWSRLINRLLEISPYMLSGRERALRPNRMYWRQGIYLNWSPEAYCLVGSEVLDNHPESFLKITVPSCRKGCILLGQVVDHIDSLMEEWFPGLLEIDICGEGETLLKKWALYSFNDGEEHQKILLDDLMKKAEEGDLLVNPDQPRLTIPISQIAPDLILADLPRNIMLNNDELEFEQAPEFLLGDGSFGSVYRAAYEGEEVAVKIFNKHTSLRLLRQELVVLCHLHHPSLISLLAAGIRPRMLVMELASKGSLDRLLQQDKASLTRTLQHRIALHVADGLRYLHSAMIIYRDLKPHNVLLFTLYPNAAIIAKIADYGIAQYCCRMGIKTSEGTPGFRAPEVARGNVIYNQQADVYSFGLLLYDILTTGGRIVEGLKFPNEFDELEIQGKLPDPVKEYGCAPWPMVEKLIKQCLKENPQERPTSAQVFDILNSAELVCLTRRILLPKNVIVECMVATHHNSRNASIWLGCGHTDRGQLSFLDLNTEGYTSEEVADSRILCLALVHLPVEKESWIVSGTQSGTLLVINTEDGKKRHTLEKMTDSVTCLYCNSFSKQSKQKNFLLVGTADGKLAIFEDKTVKLKGAAPLKILNIGNVSTPLMCLSESTNSTERNVMWGGCGTKIFSFSNDFTIQKLIETRTSQLFSYAAFSDSNIITVVVDTALYIAKQNSPVVEVWDKKTEKLCGLIDCVHFLREVMVKENKESKHKMSYSGRVKTLCLQKNTALWIGTGGGHILLLDLSTRRLIRVIYNFCNSVRVMMTAQLGSLKNVMLVLGYNRKNTEGTQKQKEIQSCLTVWDINLPHEVQNLEKHIEVRKELAEKMRRTSVE
modifications: BODIPY TMR-X on primary amines, randomly labeled (dye added 1:1)
